In paper PMC6241251:

Target: human SK4 (small-conductance Ca2+-activated K+ channel), full-length (human) (UniProt O15554)
Test: cryo-EM structure

Sequence of UniProt O15554 (O15554 whole entry): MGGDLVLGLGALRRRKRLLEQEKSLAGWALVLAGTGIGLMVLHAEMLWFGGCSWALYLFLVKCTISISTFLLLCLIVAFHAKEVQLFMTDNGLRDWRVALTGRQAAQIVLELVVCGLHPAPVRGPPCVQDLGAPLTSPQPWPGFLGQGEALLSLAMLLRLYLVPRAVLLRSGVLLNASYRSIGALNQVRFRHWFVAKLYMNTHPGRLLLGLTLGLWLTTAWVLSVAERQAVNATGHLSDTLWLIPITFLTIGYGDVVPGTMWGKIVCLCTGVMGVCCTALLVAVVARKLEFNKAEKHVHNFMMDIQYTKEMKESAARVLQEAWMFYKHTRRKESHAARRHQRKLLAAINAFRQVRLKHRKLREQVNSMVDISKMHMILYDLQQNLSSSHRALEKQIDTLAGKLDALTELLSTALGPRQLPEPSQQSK

stoichiometry N (CaMs per channel tetramer): 4
Substance: calmodulin (from UniProt P0DP23 1-149) (natural protein; other documents disagree on this pair)
